Literature values, collected in patent US4636489A, “Modified protease inhibitors, process for their preparation, and pharmaceutical compositions prepared therefrom” (Plantorganwerk KG, priority 1983, dated 1987).

B1: eglin C: protease inhibitor from leech extracts consisting of 70 amino acid radicals, described in DE-OS No. 28 08 396 (protein, UniProt P01051 1-70, looked up)
Eglin C: TEFGSELKSFPEVVGKTVDQAREYFTLHYPQYDVYFLPEGSPVTLDLRYNRVRVFYNPGTNVVNHVPHVG
- inhibition of chymotrypsin (chymotrypsin): strongly inhibit
- inhibition of subtilisin (subtilisin): strongly inhibit
- inhibition of PMN-granulocyte elastase (PMN-granulocyte elastase): strongly inhibit
- inhibition of cathepsin G (cathepsin G): strongly inhibit
- inhibition of trypsin (trypsin): only poor inhibitors
- inhibition of pancreaselastase (pancreaselastase): only poor inhibitors
